No end group written: not given here.
Biological target: Circumsporozoite protein (CSP) (Plasmodium falciparum (isolate 3D7), UniProt Q7K740)
Experiment: AVEXIS screen signal:noise (double-corrected)

Chain of Circumsporozoite protein (CSP) (Q7K740 19-374): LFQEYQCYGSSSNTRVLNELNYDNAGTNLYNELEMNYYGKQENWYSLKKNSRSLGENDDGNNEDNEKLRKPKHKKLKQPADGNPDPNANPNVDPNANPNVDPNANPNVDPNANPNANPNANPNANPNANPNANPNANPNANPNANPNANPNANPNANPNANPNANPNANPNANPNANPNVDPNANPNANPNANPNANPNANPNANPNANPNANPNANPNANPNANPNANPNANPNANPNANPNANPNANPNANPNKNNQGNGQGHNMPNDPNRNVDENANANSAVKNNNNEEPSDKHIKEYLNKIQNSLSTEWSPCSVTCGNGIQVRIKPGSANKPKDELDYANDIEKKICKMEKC

Binder | binding score
ADP360 (protein, bait human Fc-tagged dimer) MGAARGSPARPRRLPLLSVLLLPLLGGTQTAIVFIKQPSSQDALQGRRALLRCEVEAPGPVHVYWLLDGAPVQDTERRFAQGSSLSFAAVDRLQDSGTFQCVARDDVTGEEARSANASFNIKWIEAGPVVLKHPASEAEIQPQTQVTLRCHIDGHPRPTYQWFRDGTPLSDGQSNHTVSSKERNLTLRPAGPEHSGLYSCCAHSAFGQACSSQNFTLSIADESFARVVLAPQDVVVARYEEAMFHCQFSAQPPPSLQWLFEDETPITNRSRPPHLRRATVFANGSLLLTQVRPRNAGIYRCIGQGQRGPPIILEATLHLAEIEDMPLFEPRVFTAGSEERVTCLPPKGLPEPSVWWEHAGVRLPTHGRVYQKGHELVLANIAESDAGVYTCHAANLAGQRRQDVNITVATVPSWLKKPQDSQLEEGKPGYLDCLTQATPKPTVVWYRNQMLISEDSRFEVFKNGTLRINSVEVYDGTWYRCMSSTPAGSIEAQARVQVLEKLKFTPPPQPQQCMEFDKEATVPCSATGREKPTIKWERADGSSLPEWVTDNAGTLHFARVTRDDAGNYTCIASNGPQGQIRAHVQLTVAVFITFKVEPERTTVYQGHTALLQCEAQGDPKPLIQWKGKDRILDPTKLGPRMHIFQNGSLVIHDVAPEDSGRYTCIAGNSCNIKHTEAPLYVVDKPVPEESEGPGSPPP | 0.739
ADP356 (protein, bait human Fc-tagged dimer) MAPLPGALGVAAAAALWLLLLLLPRTRADEHEHTYQDKEEVVLWMNTVGPYHNRQETYKYFSLPFCVGSKKSISHYHETLGEALQGVELEFSGLDIKFKDDVMPATYCEIDLDKEKRDAFVYAIKNHYWYQMYIDDLPIWGIVGEADENGEDYYLWTYKKLEIGFNGNRIVDVNLTSEGKVKLVPNTKIQMSYSVKWKKSDVKFEDRFDKYLDPS | 1
ADP119 (protein, bait human Fc-tagged dimer) MDVCVRLALWLLWGLLLHQGQSLSHSHSEKATGTSSGANSEESTAAEFCRIDKPLCHSEDEKLSFEAVRNIHKLMDDDANGDVDVEESDEFLREDLNYHDPTVKHSTFHGEDKLISVEDLWKAWKSSEVYNWTVDEVVQWLITYVELPQYEETFRKLQLSGHAMPRLAVTNTTMTGTVLKMTDRSHRQKLQLKALDTVLFGPPLLTRHNHLKD | 1.89
ADP350 (protein, bait human Fc-tagged dimer) MAAAGRLPSSWALFSPLLAGLALLGVGPVPARALHNVTAELFGAEAWGTLAAFGDLNSDKQTDLFVLRERNDLIVFLADQNAPYFKPKVKVSFKNHSALITSVVPGDYDGDSQMDVLLTYLPKNYAKSELGAVIFWGQNQTLDPNNMTILNRTFQDEPLIMDFNGDLIPDIFGITNESNQPQILLGGNLSWHPALTTTSKMRIPHSHAFIDLTEDFTADLFLTTLNATTSTFQFEIWENLDGNFSVSTILEKPQNMMVVGQSAFADFDGDGHMDHLLPGCEDKNCQKSTIYLVRSGMKQWVPVLQDFSNKGTLWGFVPFVDEQQPTEIPIPITLHIGDYNMDGYPDALVILKNTSGSNQQAFLLENVPCNNASCEEARRMFKVYWELTDLNQIKDAMVATFFDIYEDGILDIVVLSKGYTKNDFAIHTLKNNFEADAYFVKVIVLSGLCSNDCPRKITPFGVNQPGPYIMYTTVDANGYLKNGSAGQLSQSAHLALQLPYNVLGLGRSANFLDHLYVGIPRPSGEKSIRKQEWTAIIPNSQLIVIPYPHNVPRSWSAKLYLTPS | 0.985
ADP315 (protein, bait human Fc-tagged dimer) MARAHWGCCPWLVLLCACAWGHTKPVDLGGQDVRNCSTNPPYLPVTVVNTTMSLTALRQQMQTQNLSAYIIPGTDAHMNEYIGQHDERRAWITGFTGSAGTAVVTMKKAAVWTDSRYWTQAERQMDCNWELHKEVGTTPIVTWLLTEIPAGGRVGFDPFLLSIDTWESYDLALQGSNRQLVSITTNLVDLVWGSERPPVPNQPIYALQEAFTGSTWQEKVSGVRSQMQKHQKVPTAVLLSALEETAWLFNLRASDIPYNPFFYSYTLLTDSSIRLFANKSRFSSETLSYLNSSCTGPMCVQIEDYSQVRDSIQAYSLGDVRIWIGTSYTMYGIYEMIPKEKLVTDTYSPVMMTKAVKNSKEQALLKASHVRDAVAVIRYLVWLEKNVPKGTVDEFSGAEIVDKFRGEEQFSSGPSFETISASGLNAALAHYSPTKELNRKLSSDEMYLLDSGGQYWDGTTDITRTVHWGTPSAFQKEAYTRVLIGNIDLSRLIFPAATSGRMVEAFARRALWDAGLNYGHGTGHGIGNFLCVHEWPVGFQSNNIAMAKGMFTSIEPGYYKDGEFGIRLEDVALVVEAKTKYPGSYLTFEVVSFVPYDRNLIDVSLLSPEHLQYLNRYYQTIREKVGPELQRRQLLEEFEWLQQHTEPLA | 2.59
MAIHKALVMCLGLPLFLFPGAWAQGHVPPGCSQGLNPLYYNLCDRSGAWG (cysteine pairing not given here; also: human Fc-tagged dimer) [ADP328] | 1.01
ADP114 (protein, bait human Fc-tagged dimer) MVMSVGLSLLLPLWGRTFLLLLSVVMAQSHWPSEPSEAVRDWENQLEASMHSVLSDLHEAVPTVVGIPDGTAVVGRSFRVTIPTDLIASSGDIIKVSAAGKEALPSWLHWDSQSHTLEGLPLDTDKGVHYISVSATRLGANGSHIPQTSSVFSIEVYPEDHSDLQSVRTASPDPGEVVSSACAADEPVTVLTVILDADLTKMTPKQRIDLLHRMRSFSEVELHNMKLVPVVNNRLFDMSAFMAGPGNPKKVVENGALLSWKLGCSLNQNSVPDIHGVEAPAREGAMSAQLGYPVVGWHIANKKPPLPKRVRRQIHATPTPVTAIGPPTTAIQEPPSRIVPTPTSPAIAPPTETMAPPVRDPVPGKPTVTIRTRGAIIQTPTLGPIQPTRVSEAGTTVPGQIRPTMTIPGYVEPTAVATPPTTTTKKPRVSTPKPATPSTDSTTTTTRRPTKKPRTPRPVPRVTTKVSITRLETASPPTRIRTTTSGVPRGGEPNQRPELKNHIDRVDAWVGTYFEVKIPSDTFYDHEDTTTDKLKLTLKLREQQLVGEKSWVQFNSNSQLMYGLPDSSHVGKHEYFMHATDKGGLSAVDAFEIHVHRRPQGDRAPARFKAKFVGDPALVLNDIHKKIALVKKLAFAFGDRNCSTITLQNITRGSIVVEWTNNTLPLEPCPKEQIAGLSRRIAEDDGKPRPAFSNALEPDFKATSITVTGSGSCRHLQFIPVVPPRRVPSEAPPTEVPDRDPEKSSEDDVYLHT | 1.2
ADP295 (protein, bait human Fc-tagged dimer) MALLLCFVLLCGVVDFARSLSITTPEEMIEKAKGETAYLPCKFTLSPEDQGPLDIEWLISPADNQKVDQVIILYSGDKIYDDYYPDLKGRVHFTSNDLKSGDASINVTNLQLSDIGTYQCKVKKAPGVANKKIHLVVLVKPSGARCYVDGSEEIGSDFKIKCEPKEGSLPLQYEWQKLSDSQKMPTSWLAEMTSSVISVKNASSEYSGTYSCTVRNRVGSDQCLLRLNVVPPSNKAG | 1.09
ADP116 (protein, bait human Fc-tagged dimer) MVTLQTWLVQALFIFLTTESTGELLDPCGYISPESPVVQLHSNFTAVCVLKEKCMDYFHVNANYIVWKTNHFTIPKEQYTIINRTASSVTFTDIASLNIQLTCNILTFGQLEQNVYGITIISGLPPEKPKNLSCIVNEGKKMRCEWDGGRETHLETNFTLKSEWATHKFADCKAKRDTPTSCTVDYSTVYFVNIEVWVEAENALGKVTSDHINFDPVYKVKPNPPHNLSVINSEELSSILKLTWTNPSIKSVIILKYNIQYRTKDASTWSQIPPEDTASTRSSFTVQDLKPFTEYVFRIRCMKEDGKGYWSDWSEEASGITYEDRPSKAPSFWYKIDPSHTQGYRTVQLVWKTLPPFEANGKILDYEVTLTRWKSHLQNYTVNATKLTVNLTNDRYLATLTVRNLVGKSDAAVLTIPACDFQATHPVMDLKAFPKDNMLWVEWTTPRESVKKYILEWCVLSDKAPCITDWQQEDGTVHRTYLRGNLAESKCYLITVTPVYADGPGSPESIKAYLKQAPPSKGPTVRTKKVGKNEAVLEWDQLPVDVQNGFIRNYTIFYRTIIGNETAVNVDSSHTEYTLSSLTSDTLYMVRMAAYTDEGGKDGPEFTFTTPKFAQGEIE | 1.88
ADP370 (protein, bait human Fc-tagged dimer) MICQKFCVVLLHWEFIYVITAFNLSYPITPWRFKLSCMPPNSTYDYFLLPAGLSKNTSNSNGHYETAVEPKFNSSGTHFSNLSKTTFHCCFRSEQDRNCSLCADNIEGKTFVSTVNSLVFQQIDANWNIQCWLKGDLKLFICYVESLFKNLFRNYNYKVHLLYVLPEVLEDSPLVPQKGSFQMVHCNCSVHECCECLVPVPTAKLNDTLLMCLKITSGGVIFQSPLMSVQPINMVKPDPPLGLHMEITDDGNLKISWSSPPLVPFPLQYQVKYSENSTTVIREADKIVSATSLLVDSILPGSSYEVQVRGKRLDGPGIWSDWSTPRVFTTQDVIYFPPKILTSVGSNVSFHCIYKKENKIVPSKEIVWWMNLAEKIPQSQYDVVSDHVSKVTFFNLNETKPRGKFTYDAVYCCNEHECHHRYAELYVIDVNINISCETDGYLTKMTCRWSTSTIQSLAESTLQLRYHRSSLYCSDIPSIHPISEPKDCYLQSDGFYECIFQPIFLLSGYTMWIRINHSLGSLDSPPTCVLPDSVVKPLPPSSVKAEITINIGLLKISWEKPVFPENNLQFQIRYGLSGKEVQWKMYEVYDAKSKSVSLPVPDLCAVYAVQVRCKRLDGLGYWSNWSNPAYTVVMDIKVPMRGPEFWRIINGDTMKKEKNVTLLWKPLMKNDSLCSVQRYVINHHTSCNGTWSEDVGNHTKFTFLWTEQAHTVTVLAINSIGASVANFNLTFSWPMSKVNIVQSLSAYPLNSSCVIVSWILSPSDYKLMYFIIEWKNLNEDGEIKWLRISSSVKKYYIHDHFIPIEKYQFSLYPIFMEGVGKPKIINSFTQDDIEKHQSDA | 1.01
ADP106 (protein, bait human Fc-tagged dimer) MAGGRCGPQLTALLAAWIAAVAATAGPEEAALPPEQSRVQPMTASNWTLVMEGEWMLKFYAPWCPSCQQTDSEWEAFAKNGEILQISVGKVDVIQEPGLSGRFFVTTLPAFFHAKDGIFRRYRGPGIFEDLQNYILEKKWQSVEPLTGWKSPASLTMSGMAGLFSISGKIWHLHNYFTVTLGIP | 1.3
ADP385 (protein, bait human Fc-tagged dimer) TIKANSEACRDGLRAVMECRNVTHLLQQELTEAQKGFQDVEAQAATCNHTVMALMASLDAEKAQGQKKVEELEGEITTLNHKLQDASAEVERLRRENQVLSVRIADKKYYPSSQDSSSAAAPQLLIVLLGLSALLQ | 0.643

Source: paper PMC11098746 (2024)
